Values joined by “and” are separate entries in the source; they are usually repeats but may differ in a detail not shown here. Equal values may be shown once. Read-outs that look alike come from different tables or passages of the source.
B1: Full-length FtsZ (wild type) (natural protein, Bacillus subtilis, UniProt P17865 1-382, looked up)
chain: MLEFETNIDGLASIKVIGVGGGGNNAVNRMIENEVQGVEYIAVNTDAQALNLSKAEVKMQIGAKLTRGLGAGANPEVGKKAAEESKEQIEEALKGADMVFVTAGMGGGTGTGAAPVIAQIAKDLGALTVGVVTRPFTFEGRKRQLQAAGGISAMKEAVDTLIVIPNDRILEIVDKNTPMLEAFREADNVLRQGVQGISDLIATPGLINLDFADVKTIMSNKGSALMGIGIATGENRAAEAAKKAISSPLLEAAIDGAQGVLMNITGGTNLSLYEVQEAADIVASASDQDVNMIFGSVINENLKDEIVVTVIATGFIEQEKDVTKPQRPSLNQSIKTHNQSVPKREPKREEPQQQNTVSRHTSQPADDTLDIPTFLRNRNKRG

Legend:
[1] = molecular target: the molecule itself; test: cell-based or functional assay
[2] = molecular target: T1, FtsZ core (residues 1-315) (Bacillus subtilis, UniProt P17865 1-315); test: ITC; displacement: pre-formed MinCN:Core complex (45 µM MinCN + 5 µM Core, 9:1) in the cell, Tail titrated to 10 µM final; TKEG buffer, 25°C; conditions: both partners purified
T1 construct: FtsZ, Bacillus subtilis, globular core, residues 1-315; The printed purification is TALON resin with elution by AcTEV protease; also called FtsZ globular core; tailless core; source: E. coli BL21 Star (DE3), purified
T1 sequence (looked up): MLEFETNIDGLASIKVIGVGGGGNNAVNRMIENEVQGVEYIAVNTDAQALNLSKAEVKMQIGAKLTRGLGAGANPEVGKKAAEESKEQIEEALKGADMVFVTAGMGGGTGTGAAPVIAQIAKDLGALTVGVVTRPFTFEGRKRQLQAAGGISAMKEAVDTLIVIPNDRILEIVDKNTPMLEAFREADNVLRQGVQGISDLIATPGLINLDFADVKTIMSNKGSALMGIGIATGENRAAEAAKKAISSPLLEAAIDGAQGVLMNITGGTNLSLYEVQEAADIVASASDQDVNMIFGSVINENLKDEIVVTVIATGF

[3] = molecular target: T1, FtsZ core (residues 1-315); test: ITC; full-length FtsZ or FtsZ core (5 µM) in the cell, FtsZ tail or MinCN (50 µM) in the syringe; TKEG buffer (50 mM Tris pH 8, 50 mM KCl, 1 mM EDTA, 5% glycerol), 25°C; one-site model; conditions: both partners purified
[4] = molecular target: B1; test: as above; conditions: both partners purified
[5] = molecular target: T2, FtsZ core (residues 1-315) D210A/D213A (Bacillus subtilis, UniProt P17865 1-315, D210A | D213A); test: as above; conditions: both partners purified
T2 construct: FtsZ, Bacillus subtilis, globular core, residues 1-315, D210A/D213A; see S1 Appendix; also called acidic patch mutant core; source: E. coli BL21 Star (DE3), purified
T2 sequence (looked up): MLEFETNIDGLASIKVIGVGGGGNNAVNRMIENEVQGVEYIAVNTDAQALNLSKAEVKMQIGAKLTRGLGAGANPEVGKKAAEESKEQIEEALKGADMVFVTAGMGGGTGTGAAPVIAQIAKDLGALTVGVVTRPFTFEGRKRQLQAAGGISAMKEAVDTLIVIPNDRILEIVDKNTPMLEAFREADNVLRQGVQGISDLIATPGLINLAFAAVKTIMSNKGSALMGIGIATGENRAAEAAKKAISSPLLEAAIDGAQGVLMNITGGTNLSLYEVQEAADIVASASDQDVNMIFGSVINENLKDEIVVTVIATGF

[6] = molecular target: T3, FtsZ core (residues 1-315), wild type (Bacillus subtilis, UniProt P17865 1-315); test: ITC; competition: FtsZ tail titrated into a pre-formed MinCN:Core complex (45 µM MinCN + 5 µM Core, 9:1, ~99% occupancy); TKEG buffer, 25°C; conditions: both partners purified
T3 construct: FtsZ of Bacillus subtilis, globular core, residues 1-315; The plasmid paragraph names 'full-length B. subtilis FtsZ and variants' in pET-28a (His6, TEV site); also called FtsZ Core WT; tailless core; source: E. coli One Shot BL21 Star (DE3), purified (TALON resin, eluted with AcTEV protease); not shown: His6, N-terminal, cleaved
T3 sequence (looked up): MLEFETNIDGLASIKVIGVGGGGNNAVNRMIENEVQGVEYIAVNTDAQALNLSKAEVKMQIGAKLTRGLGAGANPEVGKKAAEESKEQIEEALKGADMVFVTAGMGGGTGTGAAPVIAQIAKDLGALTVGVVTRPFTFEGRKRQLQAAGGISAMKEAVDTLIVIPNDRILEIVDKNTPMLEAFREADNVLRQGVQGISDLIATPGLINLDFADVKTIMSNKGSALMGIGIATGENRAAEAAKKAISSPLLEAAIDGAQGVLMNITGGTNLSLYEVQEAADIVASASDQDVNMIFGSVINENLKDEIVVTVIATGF

[7] = molecular target: T3, FtsZ core (residues 1-315), wild type; test: ITC; 5 µM full-length FtsZ or FtsZ core in the cell, 50 µM FtsZ tail or MinCN in the syringe; TKEG buffer (50 mM Tris pH 8, 50 mM KCl, 1 mM EDTA, 5% glycerol), 25°C; 20 injections of 2 µL; each replicate fitted
[8] = molecular target: T4, FtsZ core (residues 1-315) M292H/I293W/F294K (Bacillus subtilis, UniProt P17865 1-315, M292H | I293W | F294K); test: as above; conditions: both partners purified
T4 construct: FtsZ of Bacillus subtilis, globular core, residues 1-315, M292H/I293W/F294K; Vector and tag as for 'FtsZ and variants'; also called FtsZ Core HWK; MIF pocket triple mutant; source: E. coli One Shot BL21 Star (DE3), purified (TALON resin, eluted with AcTEV protease); not shown: His6, N-terminal, cleaved
T4 sequence (looked up): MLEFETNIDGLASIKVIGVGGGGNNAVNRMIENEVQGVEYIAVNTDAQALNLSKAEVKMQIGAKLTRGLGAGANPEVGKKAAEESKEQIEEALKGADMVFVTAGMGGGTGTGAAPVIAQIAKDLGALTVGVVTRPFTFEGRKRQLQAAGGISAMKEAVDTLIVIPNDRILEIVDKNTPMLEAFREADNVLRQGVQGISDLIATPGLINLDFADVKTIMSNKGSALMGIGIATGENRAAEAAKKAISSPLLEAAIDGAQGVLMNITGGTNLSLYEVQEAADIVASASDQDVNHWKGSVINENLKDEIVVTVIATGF

[9] = molecular target: T5, FtsZ core (residues 1-315) D210A/D213A (Bacillus subtilis, UniProt P17865 1-315, D210A | D213A); test: as above; conditions: both partners purified
T5 construct: FtsZ of Bacillus subtilis, globular core, residues 1-315, D210A/D213A; The sheet's label 'AA' is tied to D210A/D213A by the mean Kd (500.6 nM); Vector and tag as for 'FtsZ and variants'; also called FtsZ Core AA; acidic patch mutant; source: E. coli One Shot BL21 Star (DE3), purified (TALON resin, eluted with AcTEV protease); not shown: His6, N-terminal, cleaved
T5 sequence (looked up): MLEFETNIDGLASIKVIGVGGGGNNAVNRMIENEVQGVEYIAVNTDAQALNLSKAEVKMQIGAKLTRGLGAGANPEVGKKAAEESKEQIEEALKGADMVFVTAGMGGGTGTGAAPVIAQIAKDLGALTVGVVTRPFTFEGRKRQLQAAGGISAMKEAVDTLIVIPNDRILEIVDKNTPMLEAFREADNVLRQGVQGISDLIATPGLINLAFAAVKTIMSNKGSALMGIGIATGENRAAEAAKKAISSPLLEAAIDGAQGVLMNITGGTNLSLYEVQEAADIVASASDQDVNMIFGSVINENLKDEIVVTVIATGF

Binder: B1
- critical concentration for polymerization (x-intercept of malachite green GTPase rate against FtsZ concentration) [1]: 0.51 µM
- specific GTPase activity above the critical concentration (malachite green assay) [1]: 4 GTP/min/FtsZ

B2: Full-length FtsZ S333E (natural protein, Bacillus subtilis, UniProt P17865 1-382, looked up)
chain: MLEFETNIDGLASIKVIGVGGGGNNAVNRMIENEVQGVEYIAVNTDAQALNLSKAEVKMQIGAKLTRGLGAGANPEVGKKAAEESKEQIEEALKGADMVFVTAGMGGGTGTGAAPVIAQIAKDLGALTVGVVTRPFTFEGRKRQLQAAGGISAMKEAVDTLIVIPNDRILEIVDKNTPMLEAFREADNVLRQGVQGISDLIATPGLINLDFADVKTIMSNKGSALMGIGIATGENRAAEAAKKAISSPLLEAAIDGAQGVLMNITGGTNLSLYEVQEAADIVASASDQDVNMIFGSVINENLKDEIVVTVIATGFIEQEKDVTKPQRPSLNQEIKTHNQSVPKREPKREEPQQQNTVSRHTSQPADDTLDIPTFLRNRNKRG
- critical concentration for polymerization (x-intercept of malachite green GTPase rate against FtsZ concentration) [1]: 0.37 µM
- specific GTPase activity above the critical concentration (malachite green assay) [1]: 5.1 GTP/min/FtsZ

B3: Full-length FtsZ S333A (natural protein, Bacillus subtilis, UniProt P17865 1-382, looked up)
chain: MLEFETNIDGLASIKVIGVGGGGNNAVNRMIENEVQGVEYIAVNTDAQALNLSKAEVKMQIGAKLTRGLGAGANPEVGKKAAEESKEQIEEALKGADMVFVTAGMGGGTGTGAAPVIAQIAKDLGALTVGVVTRPFTFEGRKRQLQAAGGISAMKEAVDTLIVIPNDRILEIVDKNTPMLEAFREADNVLRQGVQGISDLIATPGLINLDFADVKTIMSNKGSALMGIGIATGENRAAEAAKKAISSPLLEAAIDGAQGVLMNITGGTNLSLYEVQEAADIVASASDQDVNMIFGSVINENLKDEIVVTVIATGFIEQEKDVTKPQRPSLNQAIKTHNQSVPKREPKREEPQQQNTVSRHTSQPADDTLDIPTFLRNRNKRG
- critical concentration for polymerization (x-intercept of malachite green GTPase rate against FtsZ concentration) [1]: 0.41 µM
- specific GTPase activity above the critical concentration (malachite green assay) [1]: 4.7 GTP/min/FtsZ

B4: FtsZ tail (residues 316-382) (domain or fragment, Bacillus subtilis, UniProt P17865 316-382, looked up)
chain: IEQEKDVTKPQRPSLNQSIKTHNQSVPKREPKREEPQQQNTVSRHTSQPADDTLDIPTFLRNRNKRG
notes: FtsZ, Bacillus subtilis, C-terminal tail, residues 316-382 (67 aa); Cloned in pGEX-6P-3 with a PreScission site; also called C-terminal tail; CTT; source: E. coli BL21 Star (DE3), purified; 15N-labelled in M9 minimal medium for NMR
- stoichiometry N [2]: 1
- Kd [3]: 228 ± 24 nM
- Kd [4]: > 2000 nM
- Kd [5]: 501 ± 64 nM

B5: FtsZ tail (residues 316-382), wild type (domain or fragment, Bacillus subtilis, UniProt P17865 316-382, looked up)
chain: IEQEKDVTKPQRPSLNQSIKTHNQSVPKREPKREEPQQQNTVSRHTSQPADDTLDIPTFLRNRNKRG
notes: FtsZ of Bacillus subtilis, C-terminal tail, residues 316-382; Cloned into pGEX-6P-3 with a PreScission site; also called FtsZ Tail WT; C-terminal tail; source: E. coli One Shot BL21 Star (DE3), purified
- stoichiometry N [6]: 1.03 and 0.948 and 0.919 and 0.965
- Kd ([7]; both partners purified): 260 nM and 222 nM and 229 nM and 202 nM
- stoichiometry N ([7]; both partners purified): 1.09 and 1.05 and 1.03 and 1.01
- binding result [8]: binds
- Kd [9]: 428 nM and 529 nM and 545 nM
- stoichiometry N [9]: 1.18 and 1.24 and 1.1 and 1.17

B6: FtsZ tail (residues 316-382) K335A/H337A (domain or fragment, Bacillus subtilis, UniProt P17865 316-382, looked up)
chain: IEQEKDVTKPQRPSLNQSIATANQSVPKREPKREEPQQQNTVSRHTSQPADDTLDIPTFLRNRNKRG
notes: FtsZ, Bacillus subtilis, C-terminal tail, residues 316-382, K335A/H337A; pGEX-6P-3 with PreScission site; cleavage of GST not described; also called K335A/H337A tail double mutant; source: E. coli BL21 Star (DE3), purified
- Kd [3]: > 2000 nM

B7: FtsZ tail (residues 316-382) I334E (domain or fragment, Bacillus subtilis, UniProt P17865 316-382, looked up)
chain: IEQEKDVTKPQRPSLNQSEKTHNQSVPKREPKREEPQQQNTVSRHTSQPADDTLDIPTFLRNRNKRG
notes: FtsZ, Bacillus subtilis, C-terminal tail, residues 316-382, I334E; pGEX-6P-3 with PreScission site; cleavage of GST not described; also called I334E tail mutant; source: E. coli BL21 Star (DE3), purified
- Kd [3]: > 2000 nM

B8: FtsZ tail (residues 316-382) S333E (domain or fragment, Bacillus subtilis, UniProt P17865 316-382, looked up)
chain: IEQEKDVTKPQRPSLNQEIKTHNQSVPKREPKREEPQQQNTVSRHTSQPADDTLDIPTFLRNRNKRG
notes: FtsZ, Bacillus subtilis, C-terminal tail, residues 316-382, S333E; pGEX-6P-3 with PreScission site; cleavage of GST not described; also called S333E tail variant; source: E. coli BL21 Star (DE3), purified
- Kd [3]: > 2000 nM

B9: FtsZ tail (residues 316-382) S333A (domain or fragment, Bacillus subtilis, UniProt P17865 316-382, looked up)
chain: IEQEKDVTKPQRPSLNQAIKTHNQSVPKREPKREEPQQQNTVSRHTSQPADDTLDIPTFLRNRNKRG
notes: FtsZ, Bacillus subtilis, C-terminal tail, residues 316-382, S333A; pGEX-6P-3 with PreScission site; cleavage of GST not described; also called S333A tail variant; source: E. coli BL21 Star (DE3), purified
- Kd [3]: > 2000 nM

B10: MinCN, the 92aa N-terminal domain of MinC (domain or fragment, Bacillus subtilis, UniProt Q01463 1-92, looked up)
chain: MKTKKQQYVTIKGTKNGLTLHLDDACSFDELLDGLQNMLSIEQYTDGKGQKISVHVKLGNRFLYKEQEEQLTELIASKKDLFVHSIDSEVIT
notes: MinC, Bacillus subtilis, N-terminal domain, 92 aa; amplified from B. subtilis genomic DNA; Cloned in pGEX-6P-1 with a PreScission site; cleavage of GST not described; source: E. coli BL21 Star (DE3), purified
- Kd [3]: 495 nM and 405 nM
- stoichiometry N [3]: 1 ± 0.15
- Kd [4]: > 2000 nM
- Kd [7]: 418 nM and 447 nM and 621 nM
- stoichiometry N [7]: 1.11 and 0.829 and 1.07
